Experimental data taken from the supplement of paper PMC7877785.
± gives the uncertainty stated by the source.

Test: self-splicing fitness, log relative to wild type (ln ratio); higher = more splicing; Tetrahymena group I intron in knt gene, E. coli kanamycin selection, DiMSum; sequences stand for … in CUCUCU…GGAGGGAAAAGUUAUCAGGCAUGCACCUGGUAGCUAGUCUUUAAACCAAUAGAUUGCAUCGGUUUAAAAGGCAAGACCGUCAAAUUGCGGGAAAGGGGUCAACAGCCGUUCAGUACCAAGUCUCAGGGGAAACUUUGAGAUGGCCUUGCAAAGGGUAUGGUAAUAAGCUGACGGACAUGGUCCUAACCACGCAGCCAAGUCCUAAGUCAACAGAUCUUCUGUUGAUAUGGAUGCAGUUCACAGACUAAAUGUCGGUCGGGGAAGAUGUAUUCUUCUCAUAAGAUAUAGUCGGACCUCUCCUUAAUGGGAGCUAGCGGAUGAAGUGAUGCAACACUGGAGCCGCUGGGAACUAAUUUGUAUGCGAAAGUAUAUUGAUUAGUUUUGGAGUACUCGUGGUCG
Procedure, shortened: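 Six replicate transformations of E. coli BL21(DE3) with a pET-22b(+) library were grown overnight at 37°C or 30°C. The library randomised all eight P1ex-region intron nucleotides, the intron lying in the knt kanamycin-resistance gene, and plates were LB agar with or without 25 μg/mL kanamycin plus 100 μg/mL carbenicillin, 50 μM IPTG and 0.2% rhamnose. Pooled colonies were amplicon-sequenced on an Illumina HiSeq 2500, and fitness is the DiMSum error-weighted combination of wild-type-normalised replicate fold changes, kanamycin versus none.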

| Sequence | self-splicing fitness (ln) (30 °C) | self-splicing fitness (ln) (37 °C) |
| --- | --- | --- |
| UUGAAGCAAUAUUACGCUUA | -1.17 ± 0.083 | -0.467 ± 0.093 |
| UUGAAGCAAUAUUACGGAUU | -1.18 ± 0.081 | -0.94 ± 0.12 |
| UUGAAGCAAUAUUACGGCUA | -0.00358 ± 0.093 | -0.295 ± 0.096 |
| UUGAAGCAAUAUUACGGUCA | -0.522 ± 0.075 | -0.262 ± 0.099 |
| UUGAAGCAAUAUUACGUAGU | -1.97 ± 0.12 | -1.54 ± 0.12 |
| UUGAAGCAAUAUUACGUAUG | -0.752 ± 0.079 | -0.391 ± 0.11 |
| UUGAAGCAAUAUUACGUCUU | -3.1 ± 0.18 | -1.24 ± 0.12 |
| UUGAAGCAAUAUUACGUUCA | 0.472 ± 0.094 | 0.134 ± 0.11 |
| UUGAAGCAAUAUUACGUUUA | -1.08 ± 0.062 | -0.682 ± 0.084 |
| UUGCAGCAAUAUUACGAAAA | -1.02 ± 0.12 | -0.432 ± 0.12 |
| UUGCAGCAAUAUUACGAACG | -0.781 ± 0.19 | -0.482 ± 0.2 |
| UUGCAGCAAUAUUACGACCG | -0.719 ± 0.065 | -0.144 ± 0.093 |
| UUGCAGCAAUAUUACGACCU | -0.892 ± 0.1 | -0.129 ± 0.15 |
| UUGCAGCAAUAUUACGACGC | -3.11 ± 0.46 |  |
| UUGCAGCAAUAUUACGAGAG | -3.54 ± 0.23 | -1.36 ± 0.21 |
| UUGCAGCAAUAUUACGAGCG | -1.14 ± 0.15 | -0.665 ± 0.15 |
| UUGCAGCAAUAUUACGCCAG | -0.879 ± 0.13 | 0.0127 ± 0.2 |
| UUGCAGCAAUAUUACGCCGA | -0.318 ± 0.11 | -0.371 ± 0.12 |
| UUGCAGCAAUAUUACGCCGU | -3.46 ± 0.36 | -1.41 ± 0.3 |
| UUGCAGCAAUAUUACGGCAU | -2.44 ± 0.19 | -1.19 ± 0.1 |
| UUGCAGCAAUAUUACGGCGA | -1.53 ± 0.12 | -0.929 ± 0.14 |
| UUGCAGCAAUAUUACGGGCA | -1.31 ± 0.13 | -0.764 ± 0.14 |
| UUGCAGCAAUAUUACGGGGG | -2.4 ± 0.17 | -2.23 ± 0.24 |
| UUGCAGCAAUAUUACGGGGU | -4.28 ± 0.2 | -2.51 ± 0.18 |
| UUGCAGCAAUAUUACGGUCG | -0.4 ± 0.089 | 0.21 ± 0.12 |

| Sequence | self-splicing fitness (ln) (30 °C) | self-splicing fitness (ln) (37 °C) |
| --- | --- | --- |
| UUGCAGCAAUAUUACGGUUC | -4.6 ± 0.27 | -1.67 ± 0.18 |
| UUGCAGCAAUAUUACGUGCU | -3.19 ± 0.22 | -1.84 ± 0.22 |
| UUGCAGCAAUAUUACGUGUC | -3.3 ± 0.17 | -3.15 ± 0.24 |
| UUGGAGCAAUAUUACGAAUC |  | -2.58 ± 0.5 |
| UUGGAGCAAUAUUACGAUCG | -2.53 ± 0.24 | -1.66 ± 0.2 |
| UUGGAGCAAUAUUACGCGUA | -3.77 ± 0.28 | -2.13 ± 0.23 |
| UUGGAGCAAUAUUACGCUGU | -3.36 ± 0.41 | -2.35 ± 0.37 |
| UUGGAGCAAUAUUACGGAAG | -3.3 ± 0.44 |  |
| UUGGAGCAAUAUUACGGACU | -3.18 ± 0.34 | -2.65 ± 0.35 |
| UUGGAGCAAUAUUACGGUAU | -2.95 ± 0.26 | -1.98 ± 0.28 |
| UUGGAGCAAUAUUACGUACC | -3.52 ± 0.43 | -2.01 ± 0.44 |
| UUGGAGCAAUAUUACGUCCU | -2.05 ± 0.2 | -0.535 ± 0.17 |
| UUGGAGCAAUAUUACGUGGC | -3.14 ± 0.24 | -0.804 ± 0.25 |
| UUGGAGCAAUAUUACGUUAG | -3.62 ± 0.2 | -1.49 ± 0.22 |
| UUGGAGCAAUAUUACGUUUU | -1.64 ± 0.19 | -2.55 ± 0.18 |
| UUGUAGCAAUAUUACGACCU | -1.39 ± 0.15 | -0.134 ± 0.16 |
| UUGUAGCAAUAUUACGACUA | -0.429 ± 0.13 | -0.0263 ± 0.16 |
| UUGUAGCAAUAUUACGACUG | -0.0934 ± 0.12 | -0.0721 ± 0.14 |
| UUGUAGCAAUAUUACGAUAC | -1.91 ± 0.22 |  |
| UUGUAGCAAUAUUACGCAUG | -1.86 ± 0.13 | 0.0958 ± 0.14 |
| UUGUAGCAAUAUUACGCAUU | -2.84 ± 0.43 | -2.26 ± 0.32 |
| UUGUAGCAAUAUUACGCCCG | -0.143 ± 0.22 | -0.0661 ± 0.23 |
| UUGUAGCAAUAUUACGCCCU | -0.23 ± 0.24 | -0.0821 ± 0.2 |
| UUGUAGCAAUAUUACGCGAC |  | -0.429 ± 0.37 |
| UUGUAGCAAUAUUACGCGGA | -1.43 ± 0.13 | -0.3 ± 0.11 |

| Sequence | self-splicing fitness (ln) (30 °C) | self-splicing fitness (ln) (37 °C) |
| --- | --- | --- |
| UUGUAGCAAUAUUACGCUAA | -0.865 ± 0.17 | -0.386 ± 0.19 |
| UUGUAGCAAUAUUACGGAAU | -1.94 ± 0.15 | -3.26 ± 0.32 |
| UUGUAGCAAUAUUACGGAGU |  | -2.5 ± 0.36 |
| UUGUAGCAAUAUUACGGAUG | -1.9 ± 0.12 | -1.56 ± 0.15 |
| UUGUAGCAAUAUUACGGCGC |  | -2.34 ± 0.2 |
| UUGUAGCAAUAUUACGGCGG | -0.508 ± 0.11 | -0.332 ± 0.14 |
| UUGUAGCAAUAUUACGGCGU | -1.2 ± 0.1 | -0.999 ± 0.12 |
| UUGUAGCAAUAUUACGGGGU | -3.7 ± 0.46 | -2.68 ± 0.27 |
| UUGUAGCAAUAUUACGGGUA | -1.75 ± 0.094 | -0.802 ± 0.099 |
| UUGUAGCAAUAUUACGUACU | -0.641 ± 0.12 | -0.216 ± 0.14 |
| UUGUAGCAAUAUUACGUCCG | -1.24 ± 0.12 | -0.388 ± 0.18 |
| UUGUAGCAAUAUUACGUCCU | -1.48 ± 0.15 | -0.583 ± 0.17 |
| UUGUAGCAAUAUUACGUGCG | -1.77 ± 0.15 | 0.0928 ± 0.14 |
| UUGUAGCAAUAUUACGUGGA | -2.15 ± 0.15 | -0.844 ± 0.12 |
| UUGUAGCAAUAUUACGUUAA | -1.71 ± 0.14 | -2.31 ± 0.21 |
| UUUAAGCAAUAUUACGACUU | -2.03 ± 0.12 | -0.889 ± 0.12 |
| UUUAAGCAAUAUUACGCAGC | -2.88 ± 0.22 | -0.593 ± 0.2 |
| UUUAAGCAAUAUUACGCCAA | -0.939 ± 0.14 | 0.281 ± 0.24 |
| UUUAAGCAAUAUUACGCGAU | -3.34 ± 0.43 | -2.32 ± 0.29 |
| UUUAAGCAAUAUUACGGAUU | -2.78 ± 0.2 | -1.07 ± 0.2 |
| UUUAAGCAAUAUUACGGCGG | -0.0601 ± 0.13 | -0.212 ± 0.18 |
| UUUAAGCAAUAUUACGGGAU | -3.4 ± 0.21 | -1.95 ± 0.2 |
| UUUAAGCAAUAUUACGGGGG | -2.49 ± 0.22 | -2.04 ± 0.18 |
| UUUAAGCAAUAUUACGGUCC | -2.33 ± 0.3 | -1.25 ± 0.25 |
| UUUAAGCAAUAUUACGGUGG | -0.86 ± 0.087 | -0.646 ± 0.12 |

| Sequence | self-splicing fitness (ln) (30 °C) | self-splicing fitness (ln) (37 °C) |
| --- | --- | --- |
| UUUAAGCAAUAUUACGGUUG | -2.33 ± 0.13 | -1.76 ± 0.14 |
| UUUAAGCAAUAUUACGGUUU | -2.53 ± 0.28 | -1.51 ± 0.22 |
| UUUAAGCAAUAUUACGUACC | -2.05 ± 0.39 |  |
| UUUAAGCAAUAUUACGUCGU | -2.14 ± 0.21 | -2.07 ± 0.32 |
| UUUAAGCAAUAUUACGUCUC | -1.11 ± 0.29 | -1.83 ± 0.39 |
| UUUAAGCAAUAUUACGUUAG | -1.75 ± 0.13 | -0.995 ± 0.14 |
| UUUCAGCAAUAUUACGAACC |  | -1.08 ± 0.38 |
| UUUCAGCAAUAUUACGAGUG | -0.489 ± 0.094 | -0.205 ± 0.11 |
| UUUCAGCAAUAUUACGAUGG | -2.15 ± 0.14 | -0.745 ± 0.16 |
| UUUCAGCAAUAUUACGCAUU | -1.93 ± 0.14 | -1.08 ± 0.11 |
| UUUCAGCAAUAUUACGCCCU | -0.619 ± 0.22 | -0.611 ± 0.29 |
| UUUCAGCAAUAUUACGCGCG | -0.107 ± 0.18 | -1.01 ± 0.22 |
| UUUCAGCAAUAUUACGCGUA | -0.663 ± 0.086 | -0.289 ± 0.088 |
| UUUCAGCAAUAUUACGCGUG | -1.02 ± 0.082 | -0.508 ± 0.094 |
| UUUCAGCAAUAUUACGCUAU | -2.73 ± 0.17 | -1.81 ± 0.14 |
| UUUCAGCAAUAUUACGCUGC | -2.48 ± 0.31 | -1.14 ± 0.35 |
| UUUCAGCAAUAUUACGCUUG | -1.3 ± 0.11 | -0.507 ± 0.11 |
| UUUCAGCAAUAUUACGGACC | -1.2 ± 0.4 |  |
| UUUCAGCAAUAUUACGGAGG | -1.53 ± 0.17 | -0.401 ± 0.18 |
| UUUCAGCAAUAUUACGGCCU | -3.87 ± 0.47 | -1.33 ± 0.25 |
| UUUCAGCAAUAUUACGGGCA | -0.321 ± 0.076 | -0.0917 ± 0.085 |
| UUUCAGCAAUAUUACGGUCA | 0.101 ± 0.12 | 0.222 ± 0.13 |
| UUUCAGCAAUAUUACGGUGG | -1.94 ± 0.067 | -0.673 ± 0.075 |
